Experiment [1] deals with T1, extracellular domain of activin receptor type IIB (ActRIIBecd), biotinylated (Homo sapiens (Human), UniProt Q13705 27-117, amino-biotinylated with amine-PEG3-Biotin).
T1 construct: immobilised on a streptavidin-coated sensor chip; also called biotinylated ActRIIBecd; extracellular domain of ActRIIB
T1 sequence: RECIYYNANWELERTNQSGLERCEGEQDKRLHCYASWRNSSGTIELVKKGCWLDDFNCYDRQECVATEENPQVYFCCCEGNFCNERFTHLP
The experiment is described as follows: BIAcore SPR, biotinylated ActRIIBecd on chip; SD ±18.12 nM. The method, then:
(§1) Biosensor experiments. In one embodiment, experiments were performed on a BIAcore™ T100/T200 instrument (Pharmacia Biosensor AB) in the multichannel mode (serial flow path involving flow cells 1+2+3+4). Flow rate was 10 μl/min; temperature was 25° C.; and data were recorded at 2.5 points/s. All four segments of a sensor chip CMS were coated with streptavidin (Sigma) to a density of 2000 pg/mm² (2000 resonance units) by the aminocoupling procedure. ActRIIBecd (10 mg) and amine-PEG3-Biotin (10 mg, Pierce, Rockford, Ill.) were dissolved in 200 μl H₂O and 10 mg NaCNBH₃ was added to prepare biotinylated ActRIIBecd. The reaction mixture was heated at 70° C. for 24 h, after that a further 10 mg NaCNBH₃ was added and the reaction was heated at 70° C. for another 24 h. After cooling to room temperature, the mixture was desalted with the spin column (3,000 molecular weight cut off (MWCO)). […] Sensograms were recorded during flow of the analyte (the ActRIIBecd-associated polypeptides (i.e., domains) as previously described) first through flow cell 1 (control) then through flow cell 2 (biotinylated ActRIIBecd). […] The sensograms obtained at 1.11, 3.33, 10, 30, and 90 nM analyte were evaluated for equilibrium binding, association rate, and dissociation rate by using the programs supplied with the instrument (BIA evaluation 2.1; Software Handbook. 1995; Pharmacia Biosensor AB).

The target of experiment [2] is T1, extracellular domain of activin …. As to the kind of experiment: BIAcore SPR, biotinylated ActRIIBecd on chip; SD ±16.78 nM. The method, then:
as §1
(In general: SPR reads the build-up and loss of mass on a sensor chip optically.)

Experiment [3] shares this target. As to the kind of experiment: BIAcore SPR, biotinylated ActRIIBecd on chip; SD ±17.89 nM. On the procedure:
as §1

Experiment [4] has the same target. As to the kind of experiment: Mean KD column of Table 5; method not restated (BIAcore as Example 5); species also listed in Table 4. In outline: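 Equilibrium binding plus on- and off-rates came from reference-subtracted sensograms of five analyte concentrations (1.11, 3.33, 10, 30, 90 nM). The receptor domain, amine-linked to biotin, sat on a streptavidin chip at a density of 50-250 RU. Flow was 10 μl/min at 25° C.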

Experiment [5] shares this target. As to the kind of experiment: BIAcore SPR as Example 5 (method not restated); SD ±1.17 nM. The method, then:
as §1

Experiment [6] shares this target. As to the kind of experiment: BIAcore SPR as Example 5 (method not restated); SD ±1.95 nM. The method, then: as §1
For experiment [7] the target is unchanged. As to the kind of experiment: BIAcore SPR as Example 5 (method not restated); SD ±2.63 nM. On the procedure:
as §1

For experiment [8] the target is unchanged. The experiment is described as follows: BIAcore SPR as Example 5 (method not restated); SD ±2.65 nM. The method, then:
as §1

For experiment [9] the target is unchanged. As to the kind of experiment: BIAcore SPR as Example 5 (method not restated); SD ±1.04 nM. On the procedure:
as §1

For experiment [10] the target is unchanged. The experiment is described as follows: BIAcore SPR as Example 5 (method not restated); SD ±1.18 nM. The method, then:
as §1

For experiment [11] the target is unchanged. As to the kind of experiment: BIAcore SPR as Example 5 (method not restated); SD ±1.39 nM. On the procedure:
as §1

For experiment [12] the target is unchanged. The experiment is described as follows: BIAcore SPR as Example 5 (method not restated); SD ±1.71 nM. The method, then:
as §1

For experiment [13] the target is unchanged. As to the kind of experiment: BIAcore SPR as Example 5 (method not restated); SD ±1.30 nM. On the procedure: as §1
The target is the same in experiment [14]. As to the kind of experiment: BIAcore SPR as Example 5 (method not restated); SD ±1.59 nM. The method, then: as §1
For experiment [15] the target is unchanged. As to the kind of experiment: BIAcore SPR as Example 5 (method not restated); SD ±1.11 nM. The method, then:
as §1

For experiment [16] the target is unchanged. The experiment is described as follows: BIAcore SPR as Example 5 (method not restated); SD ±1.43 nM. The method, then:
as §1

Experiment [17] has the same target. As to the kind of experiment: BIAcore SPR as Example 5 (method not restated); SD ±1.33 nM. On the procedure: as §1
For experiment [18] the target is unchanged. The experiment is described as follows: BIAcore SPR as Example 5 (method not restated); SD ±2.07 nM. On the procedure:
as §1

Where a chain is given by its changes, count along the chain named.

By Kd is commonly meant a measure of binding affinity in units of concentration.

On to VDFSDVGWNDWAVAPPGYHAFYCHGECPFPLADHLNSDNHAIVQTLVNSV [Clone No. 16 domain (ActRIIBecd-associated polypeptide)], for which the Kd in [1] was determined as 56 nM. VDFSDVGWNDHAVAPPGYHAFYCHGECPFPLADHLNSTNHAIVQTLVNSV [Clone No. 18 domain (ActRIIBecd-associated polypeptide)] returned a dissociation constant (Kd) in experiment [2] of 64.1 nM.

In turn, VDFSDVGWNDWIVAPPGYHAFYCHGECPFPLADHLNSDNHAIVQTLVNSV [Clone No. 17 domain (ActRIIBecd-associated polypeptide)] showed a Kd in experiment [3] of 67.4 nM.

B1: SEQ ID NO: 340, cysteine pairs C15-C15^b, C29-C62^a, C30-C64^a, C88-C92^a (designed binder)
chain: AQAKHKQRKRLKSSCKRHPLYNSKDPKACCVPTELSAPSPLYLDENEKPVLKNYQDMVVHGCGCRVDFKDVGWNDHAVAPPGYHAFYCHGECPFPLADHLNSDNHAIVQTKVNSV
modifications: disulfides C15-C15 (inter), C29-C62 (intra), C30-C64 (intra), C88-C92 (intra)
notes: homodimer by intermolecular disulfide
Consider B1, for which the Kd in experiment [4] and in experiment [5] was 5.77 nM each time.

B2: SEQ ID NO: 340, cysteine pairs C15-C15^b, C29-C64^a, C30-C62^a, C88-C92^a (designed binder)
chain: B1 chain
modifications: disulfides C15-C15 (inter), C29-C64 (intra), C30-C62 (intra), C88-C92 (intra)
notes: as for B1
B2: the Kd in experiment [6] and in experiment [4] was 7.19 nM each time.

B3: SEQ ID NO: 340, cysteine pairs C15-C29^a (designed binder)
chain: B1 chain
modifications: disulfides C15-C29 (intra)
With B3, the Kd in experiment [4] and in experiment [7] was 30.1 nM each time.

B4: SEQ ID NO: 316, cysteine pairs C8-C67^a (designed binder)
chain: NSKDPKACCVPTELSAPSPLYLDENEKPVLKNYQDMVVHGCGCRVDFKDVGWNDHAVAPPGYHAFYCHGECPFPLADHLNSDNHAIVQTKVNSVGQAKRKGYKRLKSSCKRHPLY
modifications: disulfides C8-C67 (intra)
Take B4: the dissociation constant Kd in experiment [4] and in [8] was 28.9 nM in each case.

B5: SEQ ID NO: 316, cysteine pairs C67-C71^a, C8-C43^a, C9-C41^a, C109-C109^b (designed binder)
chain: B4 chain
modifications: disulfides C67-C71 (intra), C8-C43 (intra), C9-C41 (intra), C109-C109 (inter)
notes: as for B1
Take B5: the Kd in experiment [4] and in [9] was 6.17 nM each time.

B6: SEQ ID NO: 316, cysteine pairs C67-C71^a, C8-C43^b, C9-C41^b, C109-C109^b (designed binder)
chain: B4 chain
modifications: disulfides C67-C71 (intra), C8-C43 (inter), C9-C41 (inter), C109-C109 (inter)
notes: as for B1
On to B6, for which the Kd in experiment [4] and in experiment [10] was 5.78 nM each time.

B7: SEQ ID NO: 300, cysteine pairs C23-C27^a, C65-C65^b, C79-C112^a, C80-C114^a (designed binder)
chain: VDFKDVGWNDHAVAPPGYHAFYCHGECPFPLADHLNSDNHAIVQTKVNSVGQAKRKGYKRLKSSCKRHPLYNSKDPKACCVPTELSAPSPLYLDENEKPVLKNYQDMVVHGCGCR
modifications: disulfides C23-C27 (intra), C65-C65 (inter), C79-C112 (intra), C80-C114 (intra)
notes: as for B1
As for B7, the equilibrium dissociation constant (Kd) in experiment [4] and in experiment [11] was 5.14 nM in each case.

B8: SEQ ID NO: 300, cysteine pairs C23-C27^a, C65-C65^b, C79-C114^a, C80-C112^a (designed binder)
chain: B7 chain
modifications: disulfides C23-C27 (intra), C65-C65 (inter), C79-C114 (intra), C80-C112 (intra)
notes: as for B1
Turning to B8, the dissociation constant Kd in [4] and in [12] was 7.37 nM throughout.

B9: SEQ ID NO: 292, cysteine pairs C80-C114^b, C79-C112^b, C44-C48^a (designed binder)
chain: GQAKRKGYKRLKSSCKRHPLYVDFKDVGWNDHAVAPPGYHAFYCHGECPFPLADHLNSDNHAIVQTKVNSVNSKDPKACCVPTELSAPSPLYLDENEKPVLKNYQDMVVHGCGCR
modifications: disulfides C80-C114 (inter), C79-C112 (inter), C44-C48 (intra)
notes: as for B1
Turning to B9, the Kd in experiment [4] and in experiment [13] was 5.54 nM throughout.

B10: SEQ ID NO: 324, cysteine pairs C15-C15^b, C79-C114^a, C80-C112^a, C44-C48^a (designed binder)
chain: B9 chain with G1A, R5H, G7Q, Y8R, D75I, P88I, P90M, P99V, H110E
modifications: disulfides C15-C15 (inter), C79-C114 (intra), C80-C112 (intra), C44-C48 (intra)
notes: as for B1
Regarding B10, the Kd in experiment [14] and in experiment [4] was 8.42 nM throughout.

B11: SEQ ID NO: 332, cysteine pairs C15-C15^b, C80-C114^a, C79-C112^a, C44-C48^a (designed binder)
chain: B9 chain with K25S, H32W, A33I, D59T, K67L
modifications: disulfides C15-C15 (inter), C80-C114 (intra), C79-C112 (intra), C44-C48 (intra)
notes: as for B1
Take B11: the Kd in [15] and in experiment [4] was 5.98 nM each time.

B12: SEQ ID NO: 308, cysteine pairs C59-C59^b, C8-C41^a, C9-C43^a, C88-C92^a (designed binder)
chain: NSKDPKACCVPTELSAPSPLYLDENEKPVLKNYQDMVVHGCGCRGQAKRKGYKRLKSSCKRHPLYVDFKDVGWNDHAVAPPGYHAFYCHGECPFPLADHLNSDNHAIVQTKVNSV
modifications: disulfides C59-C59 (inter), C8-C41 (intra), C9-C43 (intra), C88-C92 (intra)
notes: as for B1
For B12, the Kd in experiment [16] and in experiment [4] was 5.98 nM throughout.

B13: SEQ ID NO: 308, cysteine pairs C59-C59^b, C8-C43^a, C9-C41^a, C88-C92^a (designed binder)
chain: B12 chain
modifications: disulfides C59-C59 (inter), C8-C43 (intra), C9-C41 (intra), C88-C92 (intra)
notes: as for B1
As to B13, the dissociation constant (Kd) in experiment [17] and in [4] was 6.11 nM throughout.

B14: SEQ ID NO: 308, cysteine pairs C8-C9^a (designed binder)
chain: B12 chain
modifications: disulfides C8-C9 (intra)
Regarding B14, the Kd in experiment [4] and in experiment [18] was 31.2 nM each time.

For the origin of these results see US20190071480A1 (Biogen, published 2019).
